The record followed here is US20240425607A1 (COMPUGEN, published 2024).

In assay [1] the target is T1, cynomolgus monkey IL-18BP (construct not stated) (cynomolgus monkey).
T1 construct: also called cyno IL18BP; cyno IL-18BP
Briefly: KinExA, solution equilibrium.

For assay [2], the target named is T2, human IL-18BP (recombinant, construct not stated) (human, UniProt O95998 31-194).
T2 construct: also called hIL-18BP; human monomeric IL18BP
T2 sequence: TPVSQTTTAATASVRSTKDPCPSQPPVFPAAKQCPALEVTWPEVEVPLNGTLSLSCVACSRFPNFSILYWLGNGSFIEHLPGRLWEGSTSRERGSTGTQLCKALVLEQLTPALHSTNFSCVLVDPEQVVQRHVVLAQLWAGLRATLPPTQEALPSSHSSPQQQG
The assay is described as follows: KinExA, solution equilibrium. (In general: Kinetic exclusion samples the free partner from a solution-phase mixture.)

For assay [3], the target named is T1, cynomolgus monkey IL-18BP (construct …). The assay is described as follows: KinExA (figure legend; the text prints 208 fM).
The next assay deals with T3, mouse IL18-BP-Fc (mouse, UniProt Q9Z0M9 29-193, limits assumed).
T3 construct: R&D cat; 122-BP is named for the AbD35328 SPR; also called mouse IL18-BP-Fc (cat. 122-BP, R&D); mouse IL18-BP Fc fusion protein
T3 sequence (looked up): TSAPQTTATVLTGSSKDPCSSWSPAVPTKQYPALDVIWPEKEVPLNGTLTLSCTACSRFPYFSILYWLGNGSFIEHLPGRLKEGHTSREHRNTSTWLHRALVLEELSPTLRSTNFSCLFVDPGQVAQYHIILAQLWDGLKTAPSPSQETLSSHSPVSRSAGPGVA
Briefly: Biacore T100; mouse IL18BP-Fc captured on anti-human Fc, Fab 300-2.21 nM in solution. (Surface plasmon resonance follows binding to a sensor surface in real time, without labels.)

Assay [4] concerns the target T4, mouse IL-18BP (construct not stated) (mouse, UniProt Q9Z0M9 29-193, limits assumed).
T4 construct: also called mIL18-BP
T4 sequence (looked up): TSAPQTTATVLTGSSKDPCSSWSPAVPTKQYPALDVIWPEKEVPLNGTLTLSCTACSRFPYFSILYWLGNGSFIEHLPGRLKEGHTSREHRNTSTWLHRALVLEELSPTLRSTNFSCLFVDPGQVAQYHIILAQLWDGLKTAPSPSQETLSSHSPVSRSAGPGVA
Briefly: KinExA, solution equilibrium.

B1: ADI-71739 (antibody, V domains shown)
VH: QLQLQESGPGLVKPSETLSLTCTVSGGSISSPDYPWGWIRQPPGKGLEWIGSIYYQGATYYNPSLKSRVTISVDTSKNQFSLKLSSVTAADTAVYYCARGPYRQLFDYWGQGTLVTVSS
VL: DIQMTQSPSSVSASVGDRVTITCRASQGISSWLAWYQQKPGKAPKLLIYAASSLQSGVPSRFSGSGSGTDFTLTISSLQPEDFATYYCQQGSVFPYTFGGGTKVEIK
A word on the Kd: it is the free concentration of one partner at which half of the binding sites on the other are occupied at equilibrium, for simple one-to-one binding. Regarding B1, the results for the Kd in assay [1], in assay [2] and in assay [3] were approximately 0.208 pM, approximately 0.291 pM and 0.209 pM, respectively.

B2: ADI-71739 Fab fragment (Fab, V domains shown)
VH: QLQLQESGPGLVKPSETLSLTCTVSGGSISSPDYPWGWIRQPPGKGLEWIGSIYYQGATYYNPSLKSRVTISVDTSKNQFSLKLSSVTAADTAVYYCARGPYRQLFDYWGQGTLVTVSS
VL: DIQMTQSPSSVSASVGDRVTITCRASQGISSWLAWYQQKPGKAPKLLIYAASSLQSGVPSRFSGSGSGTDFTLTISSLQPEDFATYYCQQGSVFPYTFGGGTKVEIK
notes: Used for the Biacore measurement on mouse IL18BP-Fc; also called anti-IL18BP Fab
In the assay with mouse IL18-BP-Fc, B2 displayed a Kd of approximately 4000 pM.

B3: mouse IL-18 (ligand, UniProt P70380 36-192, looked up)
chain: NFGRLHCTTAVIRNINDQVLFVDKRQPVFEDMTDIDQSASEPQTRLIIYMYKDSEVRGLAVTLSVKDSKMSTLSCKNKIISFEEMDPPENIDDIQSDLIFFQKRVPGHNKMEFESSLYEGHFLACQKEDDAFKLILKKKDENGDKSVMFTLTNLHQS
notes: also called mIL-18; mouse IL-18 biotinylated (Sino Biological)
In turn, B3 displayed a Kd in assay [4] of approximately 3.7 pM.
